Assay results: the RNAGym collection of RNA variant scans (doi:10.7554/elife.90254)

B1: LINE1-mini (parent)
chain: GGCAGAGCUCAACACAGCGUGGCAAAGUGGCUGUGGCUAGACUGCC

Variants of: B1
Experiment: self-cleavage, relative activity (ratio to wild type); higher = more cleavage; in vitro, sequencing; the parent is a self-cleaving ribozyme

Point of comparison: GGCAGAGCUCAACACAGCGUGGCAAAGUGGUUUUGGCUAGACUGCC [C31U G33U], self-cleavage 0.06. Against it:
- GGCAGAGCUCAACACAGCGUGGCAAAGUGGCCGUGGCUAGAUUGCC [U32C C42U] — higher, 0.22
- GGCAGAGCUCAACAGAGCGUGGCAAAGUGGCUGUUGCUAGACUGCC [C15G G35U] — lower, 0.03
- GGCAGAGCUCAACACAGCGUGGCAAAGUGGCUGUGACUAGUCUGCC [G36A A41U] — higher, 0.44
- GGCAGAGCUCAACAUAGCAUGGCAAAGUGGCUGUGGCUAGACUGCC [C15U G19A] — higher, 0.98
- GGCAGAGCUAAACACAGCGUGGCCAAGUGGCUGUGGCUAGACUGCC [C10A A24C] — lower, 0.03
- GGCAGAGCUCAACACAGCUUGGCCAAGUGGCUGUGGCUAGACUGCC [G19U A24C] — higher, 0.73
- GGCAGAGCUCUACUCAGCGUGGCAAAGUGGCUGUGGCUAGACUGCC [A11U A14U] — higher, 0.08
- CGCAGAGCUCAACACAGCGUCGCAAAGUGGCUGUGGCUAGACUGCC [G1C G21C] — the same, 0.06
- GGCAGAACUCAACACAGCGUGGAAAAGUGGCUGUGGCUAGACUGCC [G7A C23A] — higher, 0.15
- GGCAGAGCUACACACAGCGUGGCAAAGUGGCUGUGGCUAGACUGCC [C10A A11C] — lower, 0.02
- GGCAGAGCUCAACACAGCGUGCCAGAGUGGCUGUGGCUAGACUGCC [G22C A25G] — higher, 1.07
- GGCAGACCUCAACACAGCGUGGCAAAGUGGCUGUGGCUAGACCGCC [G7C U43C] — higher, 0.33
- GGCAGAGCUCAACACAGCGUGGCAAAGUGGCUGUGGCUAGAUUGUC [C42U C45U] — higher, 0.26
- GGCAUAGCUCAACACAGCGUGGCAAAGUGGCUGUGGCUCGACUGCC [G5U A39C] — the same, 0.06
- GGCAGAGCUCAACACAGAGUGGCAAAGUGGCUGUGGCUAGACAGCC [C18A U43A] — higher, 0.08
- GGCAGAGCUCAACACAGCGUGGCAAAGUGGGUGUGGCUGGACUGCC [C31G A39G] — lower, 0.03
- GGCAGAGCUCAACACAGCGUGCAAAAGUGGCUGUGGCUAGACUGCC [G22C C23A] — higher, 0.92
- GGCAGAGUUCAGCACAGCGUGGCAAAGUGGCUGUGGCUAGACUGCC [C8U A12G] — higher, 0.08
- GGCAGAGCUCAAUACAACGUGGCAAAGUGGCUGUGGCUAGACUGCC [C13U G17A] — higher, 0.1
- GGGAGAGCUCACCACAGCGUGGCAAAGUGGCUGUGGCUAGACUGCC [C3G A12C] — higher, 0.19
- GGAAGAGCUCAACACAGCGUGGCAAAGUGGCUGUUGCUAGACUGCC [C3A G35U] — higher, 0.59
- GGCAGAGCUCAACGCCGCGUGGCAAAGUGGCUGUGGCUAGACUGCC [A14G A16C] — higher, 0.08
- GGCCGAGCUCAACACAACGUGGCAAAGUGGCUGUGGCUAGACUGCC [A4C G17A] — higher, 0.08
- GGCAGAGCUCAACACAGCGUGGCAAAGUGCCUGUGGCUAUACUGCC [G30C G40U] — higher, 0.16
- GGCAGAGCUCGACACAGCGUGGCAAAGUGGCUGUGGCUGGACUGCC [A11G A39G] — lower, 0.03
- GUCAGAGCUCAACACAGCGUGGCAAAGAGGCUGUGGCUAGACUGCC [G2U U28A] — higher, 0.07
- GGCAGAGCUCAACACAGCUUGGCAAAGUGGCUGAGGCUAGACUGCC [G19U U34A] — higher, 0.13
- GGCCGAGCUCAACACAGCGUGGCAAAGUGGCUGUGGCUCGACUGCC [A4C A39C] — higher, 0.07
- GGCAGAGCUCAACACAGCGUGGCAAAGUGGCUGUGGCUAGACUACC [G44A] — higher, 0.44
- GGCAGAGCUCAACACAUCGUGGCAAAGUGGCUGUGGCUAGACUGCG [G17U C46G] — higher, 0.12
- GACAGAGCUCAAUACAGCGUGGCAAAGUGGCUGUGGCUAGACUGCC [G2A C13U] — higher, 0.32
- GGCAGAGCUCAUCACAGCGUGGCAAAGUGGCUGUGGGUAGACUGCC [A12U C37G] — the same, 0.06
- GUCAGAGCUCAACACAGCGUGGCAAAGUUGCUGUGGCUAGACUGCC [G2U G29U] — higher, 0.11
- GGCAGAGCUCAACACAGCGUGGCACAGUGGCAGUGGCUAGACUGCC [A25C U32A] — lower, 0.05
- GGCAGAGCUCAACACCGCGUGGCAAAGUUGCUGUGGCUAGACUGCC [A16C G29U] — higher, 0.55
- GGCAGAGCUCAACACAGCUUGGCAAAGUGGCUAUGGCUAGACUGCC [G19U G33A] — higher, 0.18
- GGCAGAGCUCAACACAGCGUGGAAAAGUGGCUGUGGCUAUACUGCC [C23A G40U] — higher, 0.14
- GGCAGAGCUCAACAAACCGUGGCAAAGUGGCUGUGGCUAGACUGCC [C15A G17C] — lower, 0.04
- GGCAGAGCCCAACACCGCGUGGCAAAGUGGCUGUGGCUAGACUGCC [U9C A16C] — lower, 0.02
- GGCAGAUCUCAACACAGCGUGGCAAAGUGGCUGUGGCUAGACUUCC [G7U G44U] — higher, 0.2
- GGCAGAGCUCAACGCAGCGUUGCAAAGUGGCUGUGGCUAGACUGCC [A14G G21U] — higher, 0.79
- GGGAGAGCUGAACACAGCGUGGCAAAGUGGCUGUGGCUAGACUGCC [C3G C10G] — lower, 0.04
- UGCAGAGCUCAACACAGCGUGGCCAAGUGGCUGUGGCUAGACUGCC [G1U A24C] — higher, 0.36
- GGCAGAGCUCAACACAGCGUGGCAAAGGGGCCGUGGCUAGACUGCC [U28G U32C] — higher, 0.27
- GGCAGAGCUCAUCACAGCGUGGCAAAGUGCCUGUGGCUAGACUGCC [A12U G30C] — higher, 0.46
- GACAGGGCUCAACACAGCGUGGCAAAGUGGCUGUGGCUAGACUGCC [G2A A6G] — higher, 0.13
- GGCAGAGCUCAACACAGCGUGGCAAAAUGGCUGUGGCUGGACUGCC [G27A A39G] — higher, 0.08
- GGCAGAGCUCAACACAGCGUGGUAAAGUGUCUGUGGCUAGACUGCC [C23U G30U] — higher, 1.38
- GGCAGUGCUCAACACAGCGUGUCAAAGUGGCUGUGGCUAGACUGCC [A6U G22U] — higher, 0.79
- GGCAGAGCUCAACCCAGCGCGGCAAAGUGGCUGUGGCUAGACUGCC [A14C U20C] — higher, 0.08
- GGCAGAGCUCAAUACAGCGUGUCAAAGUGGCUGUGGCUAGACUGCC [C13U G22U] — higher, 0.32
- GGCAGAGCUCAACACAGCGUGGCAAAGUGGCUUUGGCUAGAAUGCC [G33U C42A] — higher, 0.13
- GGCAGAACUCAACCCAGCGUGGCAAAGUGGCUGUGGCUAGACUGCC [G7A A14C] — higher, 0.5
- GGCAGAGCUCAACAAAGCGUGGCAAAGUUGCUGUGGCUAGACUGCC [C15A G29U] — higher, 0.12
- GGCAGAGCUCAACACAGCGUGGAAAAGUGGCUGUGGCUAGAGUGCC [C23A C42G] — the same, 0.06
